In this assay the target is T1, FhuA (E. coli, UniProt P06971 34-747).
T1 construct: also called FhuA receptor; FhuA transporter
T1 sequence (looked up): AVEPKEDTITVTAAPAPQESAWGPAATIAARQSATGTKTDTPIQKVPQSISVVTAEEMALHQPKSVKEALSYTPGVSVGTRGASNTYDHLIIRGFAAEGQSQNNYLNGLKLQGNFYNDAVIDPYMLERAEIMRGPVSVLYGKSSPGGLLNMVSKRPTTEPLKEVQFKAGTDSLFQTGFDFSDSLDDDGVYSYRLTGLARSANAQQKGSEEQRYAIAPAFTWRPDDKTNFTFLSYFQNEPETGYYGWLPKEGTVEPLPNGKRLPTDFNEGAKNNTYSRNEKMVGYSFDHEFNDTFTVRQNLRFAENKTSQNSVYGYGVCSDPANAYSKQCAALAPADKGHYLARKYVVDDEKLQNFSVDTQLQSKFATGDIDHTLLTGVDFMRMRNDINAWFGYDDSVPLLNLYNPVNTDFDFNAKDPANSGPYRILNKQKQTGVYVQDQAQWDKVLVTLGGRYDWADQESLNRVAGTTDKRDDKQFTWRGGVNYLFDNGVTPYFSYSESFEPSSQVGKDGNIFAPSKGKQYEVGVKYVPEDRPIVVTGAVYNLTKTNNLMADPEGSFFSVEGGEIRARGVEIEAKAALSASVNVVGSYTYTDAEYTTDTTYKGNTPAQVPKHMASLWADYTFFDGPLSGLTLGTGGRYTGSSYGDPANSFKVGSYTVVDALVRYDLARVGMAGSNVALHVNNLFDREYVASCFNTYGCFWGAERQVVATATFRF
Briefly: CN-PAGE band shift, Coomassie: about 2 µg FhuA in MSPL156 nanodisc with 5 µg colicin M, 5 min at room temperature, without and with ferricrocin.

B1: Colicin M (other)
chain: METLTVHAPSPSTNLPSYGNGAFSLSAPHVPGAGPLLVQVVYSFFQSPNMCLQALTQLEDYIKKHGASNPLTLQIISTNIGYFCNADRNLVLHPGISVYDAYHFAKPAPSQYDYRSMNMKQMSGNVTTPIVALAHYLWGNGAERSVNIANIGLKISPMKINQIKDIIKSGVVGTFPVSTKFTHATGDYNVITGAYLGNITLKTEGTLTISANGSWTYNGVVRSYDDKYDFNASTHRGIIGESLTRLGAMFSGKEYQILLPGEIHIKESGKR
notes: also called ColM; His-tagged Colicin M
As to B1, the binding result is reported as “binds”.

The record behind these values is US20210253643A1 (UNIVERSITY OF BRITISH COLUMBIA, published 2021).
